Patent publication US10876098B2, “Polynucleotide, host cell and a method to recombinantly produce the protein encoded by said polynucleotide having peroxygenative activity” (CONSEJO SUPERIOR DE INVESTIGACIONES CIENTIFICAS (CSIC), priority 2015, dated 2020)
Numbering of substitutions follows the chain as printed. Names may count otherwise.

What was measured:
[1] = molecular target: T1, Agrocybe aegerita peroxygenase AaeUPO1 variant JaWa (PaDa-I + G241D, R257K: V57A, L67F, V75I, G241D, I248V, R257K, F311L), SEQ ID NO: 24 (Cyclocybe aegerita, UniProt B9W4V6, F354L/G284D/I291V/L110F/R300K/V100A/V118I); test: Kinetic constants, JaWa variant
T1 sequence (B9W4V6 44-371 V100A/L110F/V118I/G284D/I291V/R300K/F354L): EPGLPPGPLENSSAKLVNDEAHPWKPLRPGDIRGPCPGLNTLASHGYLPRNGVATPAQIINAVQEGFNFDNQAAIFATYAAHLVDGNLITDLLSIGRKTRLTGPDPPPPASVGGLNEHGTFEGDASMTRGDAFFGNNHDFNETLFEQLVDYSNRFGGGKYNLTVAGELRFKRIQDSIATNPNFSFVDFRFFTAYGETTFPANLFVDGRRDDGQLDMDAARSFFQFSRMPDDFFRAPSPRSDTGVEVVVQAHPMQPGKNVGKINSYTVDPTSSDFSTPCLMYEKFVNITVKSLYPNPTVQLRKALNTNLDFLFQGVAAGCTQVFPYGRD
Protocol: In order to calculate the values of Km and kcat, values of Vmax were represented at substrate concentrations and the hyperbole function was adjusted (using SigmaPlot 10.0, wherein the parameter a is equal to kcat and the parameter b, to Km).
Additionally, the kinetic values of the two variants were determined using substrates of both peroxygenase and peroxidase activity (Table 2), as described in the section on materials and methods.

[2] = substrate: OO; test: purified protein, by the assay type; settings: other: H2O2, benzyl alcohol as substrate at saturation, pH 7.0
[3] = substrate: CCn1c(=NN=c2sc3cc(S(=O)(=O)O)ccc3n2CC)sc2cc(S(=O)(=O)O)ccc21; test: purified protein, by the assay type; settings: other: 100 mM sodium phosphate/citrate pH 4.0, 2 mM H2O2 (ABTS); pH 4.0
[4] = substrate: CC(C)NCC(O)COc1cccc2ccccc12; test: purified protein, by the assay type
[5] = Isoelectric point by two-dimensional electrophoresis; type: physicochemical
Protocol: The analyses were performed using an Autoflex III MALDI-TOF-TOF unit with smartbeam laser (Bruker Daltonics). The samples were evaluated in positive mode. The method was calibrated using BSA with standard, thereby covering a range of 15,000 to 70,000 Da. In order to determine the isoelectric point of the UPO variants, 8 μg of pure enzyme were subjected to two-dimensional electrophoresis. These experiments were carried out at the Proteomic and Genomic Service of the Biological Research Centre (CIB-CSIC, Spain).

[6] = Optimum pH for naphthalene; type: biochemical
[7] = Thermostability assay (T50), culture supernatants, residual activity with ABTS; type: physicochemical; settings: culture supernatants; temperature at which the enzyme retains 50% of its activity after 10 minutes of incubation
Protocol: An individual S. cerevisiae colony was selected with the corresponding clone (grown in a SC drop-out minimal medium plate: 100 mL of 6.7% yeast nitrogen base, 100 mL of 19.2 g/L uracil-free amino acid supplement, 100 mL of 20% glucose, 1 mL of 25 g/L chloramphenicol and ddH2O up to 1,000 mL) was inoculated in 2 mL of selective minimal medium (as in the SC plate medium, but with 20 g of bacto agar and rafinose instead of galactose) and was incubated for 48 hour at 30° C. and 220 RPM. An aliquot of this culture was taken such that, upon inoculating it in 5 mL of new minimal medium, optical density at 600 nm would have a value of 0.25 (optical density, OD600=0.25). This starter was incubated until completing two full growth cycles (between 6 and 8 hours), at which time 1 mL of cells were taken to inoculate 9 mL of expression medium in a 100 mL flask (OD600=0.1). This culture of each clone was incubated for 72 hours at 25° C. and 220 RPM (at peak UPO activity; OD600=25-30), the cells were separated by centrifugation (10 minutes at 4,500 RPM and 4° C.) and supernatant was filtered (using a glass and nitrocellulose filter with a pore size of 0.45 μm). Appropriate dilutions of the supernatants were prepared so that aliquots of 20 μL would give rise to a linear response in kinetic mode. 50 μL of supernatant were used for each point in a temperature gradient created by means of thermocyclator, from 30 to 80° C. After incubating for 10 minutes, the aliquots were cooled in ice for 10 minute and tempered at room temperature for 5 minutes. […] The thermostability values were calculated in accordance with the ratio between the residual activities incubated at different temperatures and the value of initial activity at room temperature. The value of T50 was determined as the value of the temperature at which the protein loses 50% of it initial activity after incubating for 10 minutes.
An individual S. cerevisiae colony was selected with the corresponding clone (grown on a SC drop-out minimal medium plate: 100 mL of 6.7% yeast nitrogen base, 100 mL of 19.2 g/L uracil-free amino acid supplement, 100 mL of 20% glucose, 1 mL of 25 g/L chloramphenicol and ddH2O up to 1,000 mL), was inoculated in 3 mL of selective minimal medium (like the SC plate medium, but with 20 g of bacto agar and rafinose instead of galactose) and incubated for 48 hours at 30° C. and 220 RPM. […] The thermostability values were calculated in accordance with the ratio between the residual activities incubated at different temperatures and the value of initial activity at room temperature. The value of T50 was determined as as the temperature value at which the protein loses 50% of its initial activity after incubating for […].

Optimum pH for ABTS = type: biochemical
[8] = Naphthalene transformation reaction analysed by HPLC-PDA; type: biochemical
Protocol: A) Products formed after 15 minutes of reaction stopped with 20 μL of HCl 37% (PaDa-I, black bars; JaWa, grey bars). […] C) and D) Monitoring of the reaction for 270 minutes (without adding HCl) for the PaDa-I (C) and JaWa (D) mutants.
The reactions were analysed by means of chromatography in reverse phase (HPLC). The equipment is composed by a tertiary pump (Varian-Agilent Technologies, USA) coupled to an autosampler (Merck Millipore, MA, USA); an ACE C18 PFP column was used for separation (pentafluorophenyl, 15 cm×4.6 cm) at 45° C. and detection was performed using a photodiode detector (PDA) (Varian-Agilent Technologies, USA). The mobile phase selected was 70% methanol and 30% ddH2O (in both cases with 0.1% of acetic acid) at a flow rate of 0.8 mL/min. The reaction was quantified at 268 nm (based on standard HPLCs). […] For long reaction times, the conditions used were those described earlier but without stopping the reaction with HCl. A sample of 10 μL was injected and analysed at different reaction times (from 1 to 270 minutes).

Optimum pH for DMP = type: biochemical
[9] = Turnover with 5′-hydroxypropranolol as substrate, HPLC; type: biochemical; settings: 0.03 μM enzyme, 0.4 mM 5′-hydroxypropranolol, 2 mM H2O2, absence of ascorbic acid
Protocol: FIG. 14 Turnover rates of AaeUPO, JaWa and SoLo. […] The disappearance of the product 5′-hydroxypropranolol can be observed due to the formation of its corresponding quinone by means of the peroxidase activity of the enzyme.
(§1) The reactions were analysed by means of chromatography in reverse phase (HPLC). The equipment was composed of a tertiary pump (Varian-Agilent Technologies, USA) coupled to an autosampler (Merck Millipore, MA, USA); for the separation, a Zorbax Eclipse plus C18 column (15 cm×4.6 cm) at 40° C. was used and the detection was performed using a photodiode detector (PDA) (Varian, Agilent Technologies, USA). The mobile phase selected was a gradient from 10% methanol and 90% ddH2O (in both cases with 0.1% of acetic acid) up to 90% methanol and 10% ddH2O at a flow rate of 0.8 mL/min. The reaction was quantified at 280 nm (based on HPLC standards). […] The standard deviations were less than 5% in all cases.

[10] = Total turnover number (TTN) for synthesis of 5′-hydroxypropranolol from propranolol; type: biochemical; settings: 0.03 μM enzyme, propranolol, 2 mM H2O2 added every 10 minutes
Protocol: FIG. 15 Calculation of the total turnover number (TTN) of AaeUPO and SoLo.
as §1

[11] = other: 100 mM potassium phosphate pH 7.0, 2 mM H2O2 (propranolol)
[12] = other: 100 mM potassium phosphate pH 7.0, 2 mM H2O2 (DMP, propranolol)
[13] = 15 minutes of reaction stopped with HCl, 6.6 nM enzyme, 1 mM naphthalene, 1 mM H2O2

Work on `OO` [H2O2, hydrogen peroxide] yielded a Km ([1]; H2O2, benzyl alcohol as substrate at saturation, pH 7.0) of 1250 µM.

With `CC(C)NCC(O)COc1cccc2c(O)cccc12` (stereo not drawn) [5′-hydroxypropranolol] the “increase in kcat (up to)” value ([1]; summary of advantages, variant not named, matches JaWa vs PaDa-I) was “up to 3.6 fold”.

In the case of `c1ccc2ccccc2c1` [Naphthalene, naphthalene], the “decrease in Km” value ([1]; JaWa vs PaDa-I, naphthalene) is reported as 3 times.

B1: Agrocybe aegerita unspecific peroxygenase AaeUPO1 (UPO, EC 1.11.2.1), wild type, SEQ ID NO: 2 (SEQ ID NO: 4 with wild-type signal peptide) (Cyclocybe aegerita) (protein)
chain: T1 sequence (B9W4V6 44-371 V100A/L110F/V118I/G284D/I291V/R300K/F354L) with A57V, F67L, I75V, D241G, V248I, K257R, L311F
With B1 the Km [2] was 1,370 ± 162 μM, the kcat [2] was 290 s⁻¹ and the kcat/Km [2] was 210000 M⁻¹ s⁻¹. The Km [3] was 25-0 ± 2.5 μM, the kcat [3] was 221 s⁻¹ and the kcat/Km [3] was 8.8e+06 M⁻¹ s⁻¹. For the same molecule, the Km [4, 11] was 2,239 ± 333 μM, the kcat [4, 11] was 150 ± 12 s⁻¹ and the kcat/Km [4, 11] was 67000 ± 4800 M⁻¹ s⁻¹.

B2: Agrocybe aegerita peroxygenase AaeUPO1 variant SoLo (JaWa + F191S: V57A, L67F, V75I, F191S, G241D, I248V, R257K, F311L), SEQ ID NO: 42 (Cyclocybe aegerita; … (protein)
chain: T1 sequence (B9W4V6 44-371 V100A/L110F/V118I/G284D/I291V/R300K/F354L) with F191S
For B2, the Km [2] was 1,430 ± 153 μM, the kcat [2] was 446 s⁻¹ and the kcat/Km [2] was 310000 ± 18000 M⁻¹ s⁻¹. For the same molecule, the Km [4, 11] was 391 ± 97 µM, the kcat [4, 11] was 497 ± 35 s⁻¹ and the kcat/Km [4, 11] was 1.3e+06 ± 20000 M⁻¹ s⁻¹.

B3: Agrocybe aegerita peroxygenase AaeUPO1 variant JaWa (PaDa-I + G241D, R257K: V57A, L67F, V75I, G241D, I248V, R257K, F311L), SEQ ID NO: 24 (Cyclocybe aegerita; … (protein)
chain: T1 sequence (B9W4V6 44-371 V100A/L110F/V118I/G284D/I291V/R300K/F354L)
For B3, the Km [4, 12] was 244 ± 92 µM, the kcat [4, 12] was 765 ± 76 s⁻¹ and the kcat/Km [4, 12] was 3.1e+06 ± 90000 M⁻¹ s⁻¹.

B4: PaDa-I: AaeUPO1 mutant with L67F, I248V, F311L, V75I, V57A and evolved signal peptide, SEQ ID NO: 18; previously published parental (protein)
chain: MKYFPLFPTLVYAVGVVAFPDYASLAGLSQQELDAIIPTLEAREPGLPPGPLENSSAKLVNDEAHPWKPLRPGDIRGPCPGLNTLASHGYLPRNGVATPAQIINAVQEGFNFDNQAAIFATYAAHLVDGNLITDLLSIGRKTRLTGPDPPPPASVGGLNEHGTFEGDASMTRGDAFFGNNHDFNETLFEQLVDYSNRFGGGKYNLTVAGELRFKRIQDSIATNPNFSFVDFRFFTAYGETTFPANLFVDGRRDDGQLDMDAARSFFQFSRMPDDFFRAPSPRSGTGVEVVVQAHPMQPGRNVGKINSYTVDPTSSDFSTPCLMYEKFVNITVKSLYPNPTVQLRKALNTNLDFLFQGVAAGCTQVFPYGRD
With B4 the pI [5] was 5.5, the “Optimum pH for naphthalene” value [6] was 6.0 and the “Thermal stability, T50” value [7] was 57.6 °C. For the same molecule, the “Optimum pH for ABTS” value (Optimum pH for ABTS) was 4.0, the “regioselectivity, 1-naphthol” value [8, 13] was 92% and the “regioselectivity, 2-naphthol” value [8, 13] was 8%. For the same molecule, the “time at which formation of the epoxide intermediary reached its maximum” value ([8]; 270 minute reaction at pH 7.0) was roughly 40 min, the “production of 1-naphthol” value ([8]; 270 minutes at pH 7.0 without stopping the reaction) was 0.14 mM and the “total turnover numbers (TTN), 1-naphthol” value ([8]; calculated using the production value of 1-naphthol after 270 minutes) was 20,000 μmoles of product/μmoles of en. For the same molecule, the “regioselectivity against 1-naphthol” value ([8]; long reaction times, 270 minutes at pH 7.0 without stopping the reaction) was 97% and the “Optimum pH for DMP” value (Optimum pH for DMP) was 6.0.

B5: AaeUPO1: unspecific peroxygenase UPO (E.C. 1.11.2.1) of Agrocybe aegerita, wild type, SEQ ID NO: 2 / 4 (protein, listed as Agrocybe aegerita)
chain: B4 chain with A100V, F110L, I118V, V291I, L354F
In the case of B5, the pI [5] is reported as 4.9-5.7, the “5′-hydroxypropranolol maintained without oxidising” value [9] is reported as “oxidise practically the entire product” and the “TTNs, With ascorbic acid” value ([10]; 4 mM ascorbic acid) is reported as 14,000. For the same molecule, the “TTNs, Without ascorbic acid” value ([10]; absence of ascorbic acid) was 3,000, the “Optimum pH for naphthalene” value [6] was 6.5 and the “Optimum pH for ABTS” value (Optimum pH for ABTS) was 4.0. For the same molecule, the “Optimum pH for DMP” value (Optimum pH for DMP) was 7.0.
